Consider one molecule from paper PMC12479363 (Nature Immunology, 2025).

The target in this test is SK56. The test can be described thus: MST.

B1: GSDMC-NT–GFP (domain or fragment)
chain: MPSMLERISKNLVKEIGSKDLTPVKYLLSATKLRQFVILRKKKDSRSSFWEQSDYVPVEFSLNDILEPSSSVLETVVTGPFHFSDIMIQKHKADMGVNVGIEVSVSGEASVDHGCSLEFQIVTIPSPNLEDFQKRKLLDPEPSFLKECRRRGDNLYVVTEAVELINNTVLYDSSSVNILGKIALWITYGKGQGQGESLRVKKKALTLQKGMVMAYKRKQLVIKEKAILISDDDEQRTFQD
For orientation: Kd means the concentration at which binding is half-saturated. Lower therefore signals tighter binding. B1 came in with a Kd of about 220 nM.
